Assay results reported in patent US20240182536A1 (MURAL ONCOLOGY, published 2024).

Columns and labels:
[1] = biological target: T1, IL-18 receptors on HEK-Blue IL-18 reporter cells (UniProt Q13478 19-541; O95256 20-599, limits assumed); assay: cell-based or functional assay
T1 sequence (looked up) 1: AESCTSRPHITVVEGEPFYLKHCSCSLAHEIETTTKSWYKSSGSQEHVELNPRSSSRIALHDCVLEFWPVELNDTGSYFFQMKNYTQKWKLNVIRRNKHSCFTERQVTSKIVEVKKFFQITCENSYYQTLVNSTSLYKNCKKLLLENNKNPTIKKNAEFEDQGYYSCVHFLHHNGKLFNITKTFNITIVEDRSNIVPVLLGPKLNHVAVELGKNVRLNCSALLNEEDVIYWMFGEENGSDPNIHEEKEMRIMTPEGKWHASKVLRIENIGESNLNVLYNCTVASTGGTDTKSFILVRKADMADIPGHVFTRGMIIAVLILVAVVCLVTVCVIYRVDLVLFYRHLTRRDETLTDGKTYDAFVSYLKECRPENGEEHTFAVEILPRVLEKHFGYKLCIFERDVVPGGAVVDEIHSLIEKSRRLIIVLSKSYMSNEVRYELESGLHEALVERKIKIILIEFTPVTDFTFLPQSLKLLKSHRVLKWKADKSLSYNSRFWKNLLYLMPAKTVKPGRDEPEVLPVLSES
T1 sequence (looked up) 2: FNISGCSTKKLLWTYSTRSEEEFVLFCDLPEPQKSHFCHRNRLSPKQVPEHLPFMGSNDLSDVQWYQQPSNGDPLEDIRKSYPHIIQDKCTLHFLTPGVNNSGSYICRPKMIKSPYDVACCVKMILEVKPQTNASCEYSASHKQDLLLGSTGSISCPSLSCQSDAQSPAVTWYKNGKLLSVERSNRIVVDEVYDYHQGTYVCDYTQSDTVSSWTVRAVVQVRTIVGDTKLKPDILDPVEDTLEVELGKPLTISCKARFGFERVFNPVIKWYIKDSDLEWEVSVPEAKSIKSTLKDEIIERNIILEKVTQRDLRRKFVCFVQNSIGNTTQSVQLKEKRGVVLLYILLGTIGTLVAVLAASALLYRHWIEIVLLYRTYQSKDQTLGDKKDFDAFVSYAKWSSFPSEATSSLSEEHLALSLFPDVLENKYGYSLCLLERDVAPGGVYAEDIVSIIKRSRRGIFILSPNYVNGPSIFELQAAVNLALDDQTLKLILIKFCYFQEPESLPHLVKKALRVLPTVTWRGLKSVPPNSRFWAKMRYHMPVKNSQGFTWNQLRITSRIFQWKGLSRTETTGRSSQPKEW

[2] = biological target: T2, human IL-18 binding protein (human, UniProt O95998 31-194); assay: cell-based or functional assay
T2 sequence (looked up): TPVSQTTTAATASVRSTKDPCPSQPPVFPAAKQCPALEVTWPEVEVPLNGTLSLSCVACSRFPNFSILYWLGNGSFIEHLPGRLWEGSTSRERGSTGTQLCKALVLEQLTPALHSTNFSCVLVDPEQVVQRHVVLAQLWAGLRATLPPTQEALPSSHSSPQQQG

B1: Comparator 1-monospecific KiH (Fc fusion)
chain: YFGKLESKLSVIRNLNDQVLFIDQGNRPLFEDMTDSDCRDNAPRTIFIISKYSDSLARGLAVTISVKCEKISTLSCENKIISFKEMNPPDNIKDTKSDIIFFQRDVPGHSRKMQFESSSYEGYFLACEKERDLFKLILKKEDELGDRSIMFTVQNED
HEK-blue EC50 (pM) - IL-18BP [1]: 0.03 pM | HEK-blue EC50 (pM) + 300 nM IL-18BP [2]: 0.03 pM
